Measured values: the supplement of paper PMC12042874
± gives the uncertainty stated by the source.

Test: amyloid nucleation score (Sup35N fusion, yeast selection) (log enrichment); library NNK2; higher = more nucleation; inactive = no reads after selection
Method in brief: (§1)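 The nucleation score, computed with DiMSum, is the log enrichment of output over input reads, centred on the mode score of non-aggregating sequences. Sequences with under 100 input reads were dropped. Reads were generated by Illumina sequencing of plasmid inserts from psi-negative yeast with Sup35N fused to peptides of 20 random codons, induced with 100 μM copper sulfate for 24 hours and grown 7 days at 30°C on medium lacking adenine and uracil.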
For YYGLVSGGLQYVCMFGSFIY, the amyloid nucleation score was “inactive”. YYHIDYYRYWPALLGCFKYS gave an amyloid nucleation score of -0.898 ± 0.34. With YYMRRVSGLDISGRMCCKSV the amyloid nucleation score was 0.106 ± 0.42. YYPGL showed an amyloid nucleation score of -1.45 ± 1.1. YYQYGWEYARLWLIDNILHG gave an amyloid nucleation score of -0.064 ± 1.1.

Test: amyloid nucleation score (Sup35N fusion, yeast selection) (log enrichment); library NNK1; higher = more nucleation; inactive = no reads after selection
Method in brief: as §1
For AAAFSSGGKLFHAGCWRRMM, the amyloid nucleation score was -0.681 ± 1.6. For AACLCLYAFGRYVVTRCYGR, the amyloid nucleation score was -0.068 ± 0.69. Substance AAIAWVLN has an amyloid nucleation score of 0.112 ± 0.58. AALENAGWLMAMANKRPSKR showed an amyloid nucleation score of -0.614 ± 0.64. Substance AAMAYFWADRLKHGFYTW has an amyloid nucleation score of 4.74 ± 0.092. With AAMYSLICNPI the amyloid nucleation score was 0.518 ± 0.3. In the case of AASRLVRDDWTLISGHPSKA, the amyloid nucleation score is reported as 0.844 ± 0.73. Work on ACELGFLPKHRHRGLVFVEG yielded an amyloid nucleation score of -0.725 ± 0.8. Work on ACHQGGMTSPNTRSTLFRVW yielded an amyloid nucleation score of 0.8 ± 0.51. Work on ACTYYIWVLSCAGPRAGGKE yielded an amyloid nucleation score of 7.257 ± 0.048. In the case of ACVLTAKMAARRIHMWQGLF, the amyloid nucleation score is reported as -0.744 ± 0.84. In the case of ACWFMCFYRFPAAWY, the amyloid nucleation score is reported as 0.079 ± 0.3. ADVATMSRGEKGASGGLK gave an amyloid nucleation score of 0.508 ± 0.54. With AEAISSYHGWSYYLHHTPFS the amyloid nucleation score was 0.654 ± 1.2. With AEGCRIPGRQSYRYGDICPR the amyloid nucleation score was -0.373 ± 0.39. For AELILFIVLELMKRAFLSS, the amyloid nucleation score was -0.795 ± 0.4. With AESSLLSLIVFNTNYFEAGQ the amyloid nucleation score was 6.753 ± 0.046. With AEWLWEVGGMGCQVKGEEAR the amyloid nucleation score was -0.34 ± 0.36. With AFLTQTSHSQTT the amyloid nucleation score was 0.048 ± 0.74. In the case of AFMYYMKPSMPIYELRILEG, the amyloid nucleation score is reported as “inactive”. Work on AFRVS yielded an amyloid nucleation score of -0.513 ± 0.63. With AFSTG the amyloid nucleation score was “inactive”. For AFTFGYTFQFYLLASTYMIR, the amyloid nucleation score was “inactive”. AFVEVFHQGLLRSAMSQMVS showed an amyloid nucleation score of -0.378 ± 0.74. In the case of AFYLN, the amyloid nucleation score is reported as -0.055 ± 0.34. AGFLS showed an amyloid nucleation score of -0.388 ± 0.62. Substance AGGAP has an amyloid nucleation score of 0.501 ± 0.89. AGGLLYMLTHLNDVHSVKRY showed an amyloid nucleation score of 1.12 ± 0.93. AGGQGRLSRKVYSTMWVESL gave an amyloid nucleation score of 1.17 ± 0.21. AGHLGWARFVYTLLSEDTVH gave an amyloid nucleation score of 0.031 ± 0.79. With AGKGLAEARTYS the amyloid nucleation score was “inactive”. AGLKV gave an amyloid nucleation score of -0.479 ± 0.4. AGNCRDW gave an amyloid nucleation score of -0.857 ± 0.66. AGPDSSGAGGGSARFLFPEL showed an amyloid nucleation score of 0.184 ± 1.2. Work on AGSGMLSKLVLLSRKSVSCN yielded an amyloid nucleation score of 1.02 ± 0.74. AGVLAV gave an amyloid nucleation score of -0.246 ± 0.46. AGWKTRHQGRVIVLGFWEGW showed an amyloid nucleation score of 0.059 ± 0.41. AGWYINYTGKRDDARLLY showed an amyloid nucleation score of 0.187 ± 0.86. AHKWCVVCQTV gave an amyloid nucleation score of 0.338 ± 0.52. AHPSNSYGRNNGVLASHRWD showed an amyloid nucleation score of -0.847 ± 0.41. Substance AHTLSYVFWLYHMDQCVLFV has an amyloid nucleation score of -0.127 ± 1.4. Substance AIFGVTPKSVITTYNFTLHM has an amyloid nucleation score of 6.01 ± 0.088. In the case of AILRHRSVNSGGELCGSKFP, the amyloid nucleation score is reported as 0.293 ± 1. With AIMCKYLRKLVLMFFSR the amyloid nucleation score was 0.811 ± 0.55. AIRSFRARIGN gave an amyloid nucleation score of 0.177 ± 1.2. AKMIDR gave an amyloid nucleation score of 0.399 ± 0.5. With ALDIFTNTKSVIGYVGIGKC the amyloid nucleation score was 0.194 ± 0.52. In the case of ALDVWVLMKHSYGLSTVDAL, the amyloid nucleation score is reported as “inactive”. In the case of ALFVVCYRYFVESGTKWRRT, the amyloid nucleation score is reported as -0.009 ± 0.28. With ALKGSRHDL the amyloid nucleation score was -0.037 ± 0.73. Work on ALKHPML yielded an amyloid nucleation score of -0.815 ± 0.49. Substance ALKLARG has an amyloid nucleation score of -0.019 ± 1.2. ALLHVNLIVGNYTSGG gave an amyloid nucleation score of 3.28 ± 0.13. Work on ALLNVQVRGYVGLGR yielded an amyloid nucleation score of 1.4 ± 0.52. With ALNLKCIRLSGV the amyloid nucleation score was 0.496 ± 0.47. In the case of ALRIHGLCFEVVCMRIWSRR, the amyloid nucleation score is reported as 0.436 ± 0.46. ALSGCERRNHLSCRSNLRDG showed an amyloid nucleation score of -0.542 ± 0.91. ALSYGIVAMMVVIGPGIVVC showed an amyloid nucleation score of 0.388 ± 0.27. Work on ALVGMRQITEILVTRDRQWG yielded an amyloid nucleation score of 0.332 ± 0.27. With ALVRL the amyloid nucleation score was 0.085 ± 0.46. Substance ALWVNVMQARAIGSGFGRTK has an amyloid nucleation score of -0.415 ± 0.58. In the case of ALYKSPLVNRSYAFLYSGA, the amyloid nucleation score is reported as 0.964 ± 0.69. AMEPKVWRDGLLPG gave an amyloid nucleation score of -0.471 ± 0.47. Work on AMFNIW yielded an amyloid nucleation score of -0.328 ± 0.47. In the case of AMGARMFRNYRTACAHLLQW, the amyloid nucleation score is reported as 0.019 ± 1. Work on AMGRGLNWCPIGFVVSDMQR yielded an amyloid nucleation score of 1.39 ± 0.67. AMLSIVSISAS gave an amyloid nucleation score of 1.39 ± 0.69.
